Reference: US12145987B2, “Method for depleting cytotoxic T cells using an anti-LAG-3 antibody composition” (Daiichi Sankyo Company, Limited, priority 2017, dated 2024)

B1: rLA1264: anti-human LAG-3 rat monoclonal antibody; heavy chain variable region SEQ ID No: 18, light chain variable region SEQ ID No: 20 (antibody, listed as Rattus norvegicus, V domains shown)
VH: EVQLVESGGGLVQPGRSLKLSCAASGFTFSSYYMAWVRQAPTKGLEWVAYISNGGYSTYYRDSVKGRFTISRENAKSTLYLQMDSLRSEDTATYYCTITDHSGYRFTYWGQGTLVTVSS
VL: DIQMTQSPSLLSASVGDRVTLSCKASQSIYNSLAWYQQKLGEAPKLLIYDANSLQTGIPSRFSGSGSGTDFTLTISSLQPEDVATYFCQKYYSGNTFGAGTKLELKRA
B2: rLA204: anti-human LAG-3 rat monoclonal antibody; heavy chain variable region SEQ ID No: 2, light chain variable region SEQ ID No: 4 (antibody, listed as Rattus norvegicus, V domains shown)
VH: EVELVESGGGLVQPGRSMKLSCAASGFTFRTYGMAWVRQAPTKGLEWVASISTGGGSTYYRDSVKGRFTISRDNAKSTLYLQMDSLRSEDTATYYCTTDLINYPGIGGFAFWGQGTLVTVSS
VL: NIVMTQSPKSMSISVGDRVTMNCKASQNVYNNIAWYQQKPGKSPKLLIYYASNRYTGVPDRFTGSGSGTDFTLTIHSVQAEDAAFYYCQRLYNSPPTFGGGTKLELKRA
B3: rLA212: anti-human LAG-3 rat monoclonal antibody; heavy chain variable region SEQ ID No: 6, light chain variable region SEQ ID No: 8 (antibody, listed as Rattus norvegicus, V domains shown)
VH: EVQLVESGGGLVQPGRSLKLSCAASGFTYRSYVMAWVRQAPTRGLEWVASISTGGGNTYYRDSVKGRFTISRDNAKNTLYLQMDSLRSEDTATYYCAEDMSNSGYGLFDYWGQGVMVTVSS
VL: NIVMTQSPKSMSISVGDRVTMNCKAGQNVDNNIAWYQKKPGQSPKLLIYYASNRNTGVPDRFTGGGYGTDFTLTINSVQAEDAAFYYCQRISNSPYTFGAGTELELKRA
B4: rLA869: anti-human LAG-3 rat monoclonal antibody; heavy chain variable region SEQ ID No: 14, light chain variable region SEQ ID No: 16 (antibody, listed as Rattus norvegicus, V domains shown)
VH: EVQLVESGGGLVQPGRSLKLSCAASGFTYRTYVMAWVRQGPTQGLEWVASISTGGVSTYYRDSVKGRFTISRDNAKNTLYLQMDSLRSEDTATYYCAKDMLNGYNSQGLFDYWGQGVMVTVSS
VL: NIVMTQSPKSMSISVGDRVTMNCRASQNVDNTIAWYQQKPGQSPKLLIYFASDRYTGVPDRFTGGGYGTDFTLTINSVQAEDAAFYYCQRIYNSPLTFGSGTKLEIRRA
B5: rLA225: anti-human LAG-3 rat monoclonal antibody; heavy chain variable region SEQ ID No: 10, light chain variable region SEQ ID No: 12 (antibody, listed as Rattus norvegicus, V domains shown)
VH: EVQLVESGGGLVQPGRSMKLSCVASGFTFSNYYMAWVRQAPTKGLEWVASISTGGGNTYYRDSVKGRFTISRDNAKSTLYLQMDSLRSEDTATYYCARPPYGYNYGWFTYWGQGTLVTVSS
VL: DIQMTQSPASLSASLGETVTIECRASEDIHNGLVWYQQKPGKSPQLLIYNANSMHTGVPSRFSGSGSGTQYSLKINSLQSEDVASYFCQQYYNYPRTFGGGTKLELKRA

What was measured:
[1] = molecular target: T1, binding of LAG-3 to MHC class II molecules (Homo sapiens, UniProt P18627); assay: LAG-3/MHC class II binding test (LAG-3-Fc binding to Raji cells, flow cytometry); conditions: rat antibodies evaluated at 10 μg/mL
T1 construct: purchased R&D Systems, Inc
T1 sequence (P18627 with tags, fused parts or gaps limits assumed): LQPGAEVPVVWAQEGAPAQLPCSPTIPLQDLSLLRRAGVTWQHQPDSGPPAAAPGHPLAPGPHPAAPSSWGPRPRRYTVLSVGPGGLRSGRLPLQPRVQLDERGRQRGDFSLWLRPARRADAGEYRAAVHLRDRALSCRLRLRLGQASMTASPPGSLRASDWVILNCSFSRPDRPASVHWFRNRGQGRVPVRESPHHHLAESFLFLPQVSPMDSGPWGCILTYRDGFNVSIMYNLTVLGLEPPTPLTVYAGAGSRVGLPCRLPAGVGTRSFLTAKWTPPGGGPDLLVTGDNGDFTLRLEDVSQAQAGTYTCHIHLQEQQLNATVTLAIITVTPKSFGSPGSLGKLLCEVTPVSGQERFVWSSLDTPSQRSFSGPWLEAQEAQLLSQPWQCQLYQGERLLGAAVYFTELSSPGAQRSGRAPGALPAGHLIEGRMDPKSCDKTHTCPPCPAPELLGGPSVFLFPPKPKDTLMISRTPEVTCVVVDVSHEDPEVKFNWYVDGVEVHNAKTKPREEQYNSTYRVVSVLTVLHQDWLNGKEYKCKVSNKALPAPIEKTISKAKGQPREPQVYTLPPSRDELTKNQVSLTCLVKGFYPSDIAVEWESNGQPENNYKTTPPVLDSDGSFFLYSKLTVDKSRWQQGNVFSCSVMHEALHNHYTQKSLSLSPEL
Experimental: This was conducted according to a previous report (Non Patent Literature 8). That is, 20 μL/well of LAG-3-Fc (manufactured by R&D Systems, Inc.) diluted with RPMI1640 containing 10% FBS to 25 nM was added to a 96-well U-bottom microplate, and 20 μL/well of the hybridoma culture supernatant was added thereto, followed by stirring and standing at 4° C. for 20 minutes. Then, 10 µL/well (2.5×10^5 cells/well) of Raji cells, which endogenously highly express MHC class II molecules, was added thereto, followed by stirring and standing at 4° C. for a further 30 minutes. The cells were washed twice with PBS or a FACS buffer, then an Anti-Human IgG PE conjugate (manufactured by Jackson ImmunoResearch Laboratories, Inc.) diluted 200-fold with a FACS buffer was added thereto for suspension, followed by standing at 4° C. for 20 minutes. After washing with PBS or a FACS buffer, the cells were resuspended in PBS containing 1 to 2% paraformaldehyde, followed by detection using a flow cytometer (CantoII: manufactured by Becton, Dickinson and Company or FC500: manufactured by Beckman Coulter Inc). The data was analyzed using FlowJo (manufactured by Tree Star Inc.), and the percentage of inhibition was calculated by the following formula. Percentage of inhibition (%)=100−(A−B)/(C−B)×100 • A: Mean fluorescence intensity of each sample well • B: Mean fluorescence intensity of background
When adding LAG-3-Fc and the antibody, 20 μL of a medium was added each time. Except for that, the same operation as in the sample well was performed. • C: Mean fluorescence intensity of maximum binding
When adding the antibody, 20 μL of a medium was added thereto.

[2] = tested on: immunoglobulin-like domains of human LAG-3; assay: Identification of epitope: flow cytometry on HEK293T cells expressing human LAG-3 domain deletion constructs; type: binding; conditions: concluded from binding to deletion constructs
Source text: (§1) Based on the fact that the rat anti-LAG-3 antibodies rLA204, rLA212, rLA225, rLA869, and rLA1264 are antibodies developed using a mutant deficient in the 1st and 2nd domains (which will be hereinafter referred to respectively as domains 1 and 2) from the N terminus out of the four immunoglobulin-like domains present in the extracellular region of LAG-3 as an immunogen, in order to reveal which of the remaining 3rd and 4th domains (which will be hereinafter referred to respectively as domains 3 and 4) from the N terminus these antibodies bind to, binding of the obtained rat anti-LAG-3 antibodies to cells expressing domains 3 and 4, or only domain 4, was investigated by flow cytometry.
(§2) Each expression plasmid (cloned into pcDNA3.1) of either domain 3 and onwards (263-525) or domain 4 and onwards (353-525) of human LAG-3 with a FLAG tag sequence (DYKDDDDK) (SEQ ID NO:87) added to the N terminus was introduced into HEK293T cells using Lipofectamine 2000 (manufactured by Life Technologies Corp.), and the cells were cultured for 1 day and then recovered, to investigate the binding activity of the antibodies by flow cytometry according to the method described in Example 1)-4.
(§3) In addition to the two types of constructs in FIG. 5A, expression plasmids were used of domain 2 and onwards (amino acid positions 173-525 of the human LAG-3 amino acid sequence in SEQ ID No: 86, FIG. 101) of human LAG-3 with a FLAG tag sequence (DYKDDDDK) (SEQ ID NO:87) added to the N terminus and the full length of human LAG-3 (both were constructed using pcDNA3.1; the nucleotide sequence encoding the amino acid sequence of human LAG-3 is described in SEQ ID No: 85, FIG. 100).

[3] = molecular target: T2, immunoglobulin-like domains of human LAG-3 (Homo sapiens, UniProt P18627); assay: as above; type: binding; conditions: FLAG-tagged 263-525, HEK293T cells, 10 μg/mL
T2 construct: expressed in transfected cells; host or cells: HEK293T cells, pcDNA3.1 plasmids, transient transfection
T2 sequence (P18627 263-525): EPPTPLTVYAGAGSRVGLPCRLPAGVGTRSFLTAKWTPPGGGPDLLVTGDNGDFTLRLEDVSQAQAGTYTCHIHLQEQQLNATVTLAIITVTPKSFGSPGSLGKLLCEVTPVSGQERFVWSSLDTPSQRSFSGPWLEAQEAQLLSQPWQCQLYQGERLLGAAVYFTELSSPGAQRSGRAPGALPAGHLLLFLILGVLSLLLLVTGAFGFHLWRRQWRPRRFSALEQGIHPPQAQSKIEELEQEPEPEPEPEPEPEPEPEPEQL
Source text: as §1, §2, §3

[4] = molecular target: T3, immunoglobulin-like domains of human LAG-3 (Homo sapiens, UniProt P18627); assay: as above; type: binding; conditions: FLAG-tagged 353-525, HEK293T cells, 10 μg/mL
T3 construct: expressed in transfected cells; host or cells: HEK293T cells, pcDNA3.1 plasmids, transient transfection
T3 sequence (P18627 353-525): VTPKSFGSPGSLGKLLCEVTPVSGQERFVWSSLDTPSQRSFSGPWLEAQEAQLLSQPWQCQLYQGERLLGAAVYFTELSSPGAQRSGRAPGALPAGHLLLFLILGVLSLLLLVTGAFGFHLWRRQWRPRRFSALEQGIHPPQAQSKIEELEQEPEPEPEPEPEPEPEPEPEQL
Source text: as §1, §2, §3

| Molecule | inhibitory activity in the LAG-3/MHC class II binding test [1] | immunoglobulin-like domain of LAG-3 bound (epitope) [2] | binding to cells expressing the construct containing domains 3 and 4 of human LAG-3 [3] | binding to cells expressing the construct containing only domain 4 of human LAG-3 [4] |
| --- | --- | --- | --- | --- |
| B1 | almost no inhibitory activity | domain 3 | – | – |
| B2 | almost no inhibitory activity | domain 3 | bound | none of them bound |
| B3 | almost no inhibitory activity | domain 3 | bound | none of them bound |
| B4 | almost no inhibitory activity | domain 3 | – | – |
| B5 | almost no inhibitory activity | domain 3 | bound | none of them bound |
